# Source: article doi:10.1101/2023.03.09.531992 (bioRxiv, 2023)
# Where a chain is given by its changes, count along the chain named. No end group written: not given here.
# T1: S. pombe αWD40 Tyr139Ala mutant (S. pombe, UniProt Q96WV5 1-327, Tyr139Ala)
# T1 sequence: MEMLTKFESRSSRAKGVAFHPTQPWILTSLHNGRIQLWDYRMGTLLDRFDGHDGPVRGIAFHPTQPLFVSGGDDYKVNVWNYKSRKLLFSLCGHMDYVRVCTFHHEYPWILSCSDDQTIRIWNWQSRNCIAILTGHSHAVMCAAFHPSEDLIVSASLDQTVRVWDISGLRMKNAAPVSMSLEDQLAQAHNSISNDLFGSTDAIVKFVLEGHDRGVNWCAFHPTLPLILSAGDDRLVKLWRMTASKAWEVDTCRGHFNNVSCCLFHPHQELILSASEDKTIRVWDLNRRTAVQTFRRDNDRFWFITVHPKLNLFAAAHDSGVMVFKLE
# T2: S. cerevisiae β’WD40 domain (N-terminal WD40 domain of β’-COPI), wild type (S. cerevisiae, UniProt P41811 1-300)
# T2 sequence: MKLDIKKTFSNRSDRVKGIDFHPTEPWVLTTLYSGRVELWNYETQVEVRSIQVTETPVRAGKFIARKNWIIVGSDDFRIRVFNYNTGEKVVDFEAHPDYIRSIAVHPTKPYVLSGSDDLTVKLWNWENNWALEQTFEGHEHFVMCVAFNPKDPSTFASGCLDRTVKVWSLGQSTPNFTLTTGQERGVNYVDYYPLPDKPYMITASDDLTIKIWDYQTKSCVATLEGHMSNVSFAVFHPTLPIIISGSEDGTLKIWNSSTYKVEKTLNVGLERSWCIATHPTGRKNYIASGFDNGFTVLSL
# T3: S. pombe αWD40 Arg300Ala mutant (S. pombe, UniProt Q96WV5 1-327, Arg300Ala)
# T3 sequence: T1 sequence with A139Y, R300A
# T4: S. pombe αWD40 Arg13Ala mutant (S. pombe, UniProt Q96WV5 1-327, Arg13Ala)
# T4 sequence: T1 sequence with R13A, A139Y
# T5: S. pombe αWD40 domain (N-terminal WD40 domain of α-COPI), wild type (S. pombe, UniProt Q96WV5 1-327)
# T5 sequence: T1 sequence with A139Y
# Legend:
# [1] = molecular target: T1, S. pombe αWD40 Tyr139Ala mutant; test: BLI
# [2] = molecular target: T2, S. cerevisiae β’WD40 domain (N-terminal …); test: BLI
# [3] = molecular target: T3, S. pombe αWD40 Arg300Ala mutant; test: BLI
# [4] = molecular target: T4, S. pombe αWD40 Arg13Ala mutant; test: BLI
# [5] = molecular target: T2, S. cerevisiae β’WD40 domain (N-terminal …); test: NMR titration
# [6] = molecular target: T5, S. pombe αWD40 domain (N-terminal WD40 …); test: BLI
binder,measurement,setting,value
"GVKLHYE (also: biotinylated) [clientized (Thr1273Glu) SARS-CoV-2 S tail heptapeptide (residues 1267-1273), biotinylated]",Kd,[1],3.8 ± 0.36 µM
same,Kd,[2],2.3 ± 0.23 µM
same,Kd,[3],4.2 ± 0.4 µM
"GVKLHYT (also: biotinylated) [wild-type SARS-CoV-2 S tail heptapeptide (residues 1267-1273), biotinylated]",binding result,[4],binds
same,Kd,[3],3.6 ± 0.4 µM
CCKFDEDDSEPVLKGVKLHYE (cysteine pairing not given here; also: 15N isotope label) [15N-labeled clientized (Thr1273Glu) SARS-CoV-2 S C-terminal tail peptide (NMR)],binding result,[5],binds
GVKLHYE-NH2 (also: biotinylated),binding result,[6],binds
